From patent US20190071499A1 (published 2019)

What was measured:
[1] = molecular target: T1, human IFN-α1 (human, UniProt P0DY56 24-189); assay: ELISA or LIPS (Table 7 summary; ELISA at 300 ng/ml MAB in paragraph 311)
T1 construct: commercial recombinant protein; also called IFN-alpha 1beta; IFN-α1/13
Experimental: In this experiment, examined MABs (300 ng/ml) were incubated for 2 hours with antigen-coated plates (coating overnight at 1 μg/ml in PBS, followed by wash out and blocking with 2% BSA in PBS). The plates were subsequently washed and binding of MABs was detected with anti-human HRP-conjugated secondary antibody.

[2] = molecular target: T2, g1mIFN-α9 (mouse, UniProt P09235 24-190); assay: LIPS
T2 construct: also called murine IFN-α9 (Gaussia luciferase fusion); not shown: Gaussia luciferase fusion partner
T2 sequence (looked up): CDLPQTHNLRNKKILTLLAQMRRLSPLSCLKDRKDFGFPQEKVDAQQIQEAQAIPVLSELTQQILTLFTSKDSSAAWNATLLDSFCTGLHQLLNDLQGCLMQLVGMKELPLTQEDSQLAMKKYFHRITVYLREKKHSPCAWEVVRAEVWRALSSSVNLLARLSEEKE

[3] = molecular target: T3, human Fc fusion mouse IFN-α4 (mouse, UniProt P07351 25-186); assay: ELISA, human Fc fusion mouse IFN-α
T3 construct: bought (SinoBiological); also called murine IFN-α4; not shown: human Fc
T3 sequence (looked up): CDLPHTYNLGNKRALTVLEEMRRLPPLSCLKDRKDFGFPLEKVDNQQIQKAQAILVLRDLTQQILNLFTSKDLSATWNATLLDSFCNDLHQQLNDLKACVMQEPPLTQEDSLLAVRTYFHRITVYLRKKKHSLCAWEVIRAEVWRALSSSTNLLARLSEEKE

[4] = molecular target: T4, human Fc fusion mouse IFN-α2 (mouse, UniProt P01573 24-190); assay: ELISA, human Fc fusion mouse IFN-α
T4 construct: bought (SinoBiological); also called murine IFN-α2; murine INFA2; not shown: human Fc
T4 sequence (looked up): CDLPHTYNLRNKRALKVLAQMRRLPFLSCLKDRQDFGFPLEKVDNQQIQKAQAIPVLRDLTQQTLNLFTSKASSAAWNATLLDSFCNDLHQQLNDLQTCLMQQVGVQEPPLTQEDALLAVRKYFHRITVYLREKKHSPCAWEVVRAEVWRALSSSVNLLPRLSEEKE

[5] = molecular target: T5, human IFN-α16 (human, UniProt P05015 24-189); assay: ELISA or LIPS (Table 7 summary)
T5 construct: recombinant protein; also called rhIFN-α16

[6] = molecular target: T6, human IFN-α10 (human, UniProt P01566 24-189); assay: ELISA or LIPS (Table 7 summary)
T6 construct: recombinant protein; also called rhIFN-α10

[7] = molecular target: T7, human IFN-α21 (human, UniProt P01568 24-189); assay: ELISA or LIPS (Table 7 summary)
T7 construct: commercial recombinant protein; also called rhIFN-α21; IFN-α21 (PBL)
T7 sequence (P01568 24-189 limits assumed): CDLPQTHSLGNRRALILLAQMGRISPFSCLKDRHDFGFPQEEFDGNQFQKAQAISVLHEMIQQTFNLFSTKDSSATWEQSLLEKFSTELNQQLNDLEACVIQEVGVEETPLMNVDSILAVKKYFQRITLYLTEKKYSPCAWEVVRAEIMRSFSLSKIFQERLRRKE

T1 sequence (P0DY56 entry or part of it limits assumed): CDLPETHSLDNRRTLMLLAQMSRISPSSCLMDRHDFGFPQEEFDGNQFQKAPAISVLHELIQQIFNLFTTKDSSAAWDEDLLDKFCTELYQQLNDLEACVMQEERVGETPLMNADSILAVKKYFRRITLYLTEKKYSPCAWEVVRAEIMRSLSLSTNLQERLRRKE
T5 sequence (P05015 24-189 limits assumed): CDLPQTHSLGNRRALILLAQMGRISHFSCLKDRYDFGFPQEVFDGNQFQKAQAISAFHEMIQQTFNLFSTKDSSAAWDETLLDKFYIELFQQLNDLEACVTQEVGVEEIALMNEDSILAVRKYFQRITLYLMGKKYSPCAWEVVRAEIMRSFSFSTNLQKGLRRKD
T6 sequence (P01566 24-189 limits assumed): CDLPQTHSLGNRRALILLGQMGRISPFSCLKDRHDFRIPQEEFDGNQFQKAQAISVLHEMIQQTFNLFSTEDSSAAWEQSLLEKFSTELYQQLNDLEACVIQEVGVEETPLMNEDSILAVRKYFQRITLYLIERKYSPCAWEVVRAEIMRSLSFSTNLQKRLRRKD

B1: 5D1 (antibody, human IgG1, kappa, V domains shown)
VH: EVQLVQAGAEVKAPGESLRISCKVSGYTFTSYWISWVRQIPGKGLEWMVKIDPRDSYTIYNPSFQGHVSISVDKSITTVYLQWSSLQASDTAIYYCVRHYLTQSLVDYFDHWGQGTLVAVSS
VL: DIQMTQSPSSLSASVGDSVTITCRASQSVSNYFHWYRQKPGKAPELLIYSASNLQTGVPSRFTGSGSGTECTLTITSLQPDDFATYYCQQTHGYPFTFGQGTKLDVRR
notes: human-derived IgG1, kappa; also called MAB 5D1; hMAB 5D1
binding result [1]: no binding | binding result [2]: no binding | binding result [3]: no binding | binding result [4]: no binding | binding result [5]: binds | binding result [6]: binds | binding result [7]: binds
